In publication PMC9668162:

Molecular target: PAM1.4 Fab (human) (UniProt P01834)
Experiment: ELISA

For “recombinant full-length VAR2CSA (variant FCR3), full ectodomain (domain or fragment)”, the Kd was 0.012 µM.
